Experimental data from patent US20170022281A1 (AbbVie / Abbott, published 2017).

What was measured:
[1] = molecular target: T1, human PRLR ECD-Fc fusion protein (human, UniProt P16471 25-233); test: ELISA on ECD
T1 construct: not shown: Fc region (captured by goat anti-human Fc)
T1 sequence: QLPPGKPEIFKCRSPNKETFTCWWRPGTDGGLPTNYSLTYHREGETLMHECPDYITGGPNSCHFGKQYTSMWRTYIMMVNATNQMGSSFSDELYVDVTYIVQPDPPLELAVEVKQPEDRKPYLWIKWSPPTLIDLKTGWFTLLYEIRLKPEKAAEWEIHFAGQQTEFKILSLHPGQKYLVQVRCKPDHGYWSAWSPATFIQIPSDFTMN
How it was run: (§1)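 EC50 values derive from fitted binding curves of antibody serial dilutions (1 h) on captured PRLR. Detection used an HRP-conjugated secondary (1 h), TMB development for 3–5 min, an H₂SO₄ stop and a 450 nm read, with all steps in Tween/PBS pH 7.4 buffer.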

[2] = molecular target: T2, mouse PRLR ECD-Fc fusion protein (mouse, UniProt Q08501 20-229); test: ELISA on ECD
T2 construct: extracellular domain; not shown: Fc region (captured by goat anti-human Fc)
T2 sequence (looked up): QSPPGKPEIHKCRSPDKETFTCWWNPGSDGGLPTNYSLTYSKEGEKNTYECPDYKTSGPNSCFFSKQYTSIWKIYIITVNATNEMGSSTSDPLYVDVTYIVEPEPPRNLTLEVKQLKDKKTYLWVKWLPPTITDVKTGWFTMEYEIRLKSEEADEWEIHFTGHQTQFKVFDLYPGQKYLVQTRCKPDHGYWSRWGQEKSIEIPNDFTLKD
How it was run: as §1

[3] = molecular target: T3, rat PRLR ECD-Fc fusion protein (rat, UniProt P05710 20-229); test: ELISA on ECD
T3 construct: extracellular domain; not shown: Fc region (captured by goat anti-human Fc)
T3 sequence (looked up): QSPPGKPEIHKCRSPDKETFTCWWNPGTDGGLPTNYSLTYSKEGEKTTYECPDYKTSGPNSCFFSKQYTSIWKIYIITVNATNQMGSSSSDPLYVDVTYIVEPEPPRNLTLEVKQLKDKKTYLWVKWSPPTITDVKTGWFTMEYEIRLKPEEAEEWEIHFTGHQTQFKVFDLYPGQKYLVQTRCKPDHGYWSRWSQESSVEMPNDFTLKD
How it was run: as §1

[4] = molecular target: T4, human PRLR (Biacore antigen) (human, UniProt P16471 25-234, limits assumed); test: SPR Biacore
T4 construct: The construct injected over captured antibody is not described (a soluble form is likely); also called huPRLR
T4 sequence: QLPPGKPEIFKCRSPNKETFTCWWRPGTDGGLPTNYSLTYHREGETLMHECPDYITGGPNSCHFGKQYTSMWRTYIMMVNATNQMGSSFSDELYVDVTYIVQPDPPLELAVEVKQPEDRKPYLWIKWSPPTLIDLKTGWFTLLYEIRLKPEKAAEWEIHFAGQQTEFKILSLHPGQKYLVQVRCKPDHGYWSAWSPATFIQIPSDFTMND
How it was run: (§2)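 Association rate, dissociation rate and dissociation constant were measured by surface plasmon resonance on a Biacore instrument. PRLR antigen was tested at 600 nM, 66.67 nM and 7.41 nM, a 3-point, 9-fold dilution series. Constants came from a 1:1 binding model fit (local Rmax, mass-transport term included) in Biacore T200 Evaluation Software.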

[5] = molecular target: T5, cyno PRLR (Biacore antigen) (cyno, UniProt A0A2K5WXK1 25-234); test: SPR Biacore
T5 construct: also called cyPRLR
T5 sequence: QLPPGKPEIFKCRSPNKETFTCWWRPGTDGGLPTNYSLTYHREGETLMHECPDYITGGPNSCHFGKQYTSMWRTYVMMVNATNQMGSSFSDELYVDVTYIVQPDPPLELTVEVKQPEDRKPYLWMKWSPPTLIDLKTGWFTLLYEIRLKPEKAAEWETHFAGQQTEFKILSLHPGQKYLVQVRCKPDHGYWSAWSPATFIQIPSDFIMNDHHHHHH
How it was run: as §2

[6] = molecular target: T6, murine PRLR (Biacore antigen) (murine, UniProt Q08501 20-229, limits assumed); test: SPR Biacore
T6 construct: also called muPRLR
T6 sequence (looked up): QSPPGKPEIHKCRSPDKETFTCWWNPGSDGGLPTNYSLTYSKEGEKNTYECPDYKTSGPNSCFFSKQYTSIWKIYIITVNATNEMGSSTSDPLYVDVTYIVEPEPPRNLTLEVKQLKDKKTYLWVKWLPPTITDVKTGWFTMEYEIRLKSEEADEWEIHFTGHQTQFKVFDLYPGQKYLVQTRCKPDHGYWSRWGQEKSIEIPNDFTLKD
How it was run: as §2

[7] = molecular target: T7, human PRLR on cells (human, UniProt P16471 25-622); test: FACS T47D 10 ug/mL
T7 construct: Endogenous on T47D cells, transfected in Baf3-hPRLR cells; also called hPRLR; T47D cells
T7 sequence: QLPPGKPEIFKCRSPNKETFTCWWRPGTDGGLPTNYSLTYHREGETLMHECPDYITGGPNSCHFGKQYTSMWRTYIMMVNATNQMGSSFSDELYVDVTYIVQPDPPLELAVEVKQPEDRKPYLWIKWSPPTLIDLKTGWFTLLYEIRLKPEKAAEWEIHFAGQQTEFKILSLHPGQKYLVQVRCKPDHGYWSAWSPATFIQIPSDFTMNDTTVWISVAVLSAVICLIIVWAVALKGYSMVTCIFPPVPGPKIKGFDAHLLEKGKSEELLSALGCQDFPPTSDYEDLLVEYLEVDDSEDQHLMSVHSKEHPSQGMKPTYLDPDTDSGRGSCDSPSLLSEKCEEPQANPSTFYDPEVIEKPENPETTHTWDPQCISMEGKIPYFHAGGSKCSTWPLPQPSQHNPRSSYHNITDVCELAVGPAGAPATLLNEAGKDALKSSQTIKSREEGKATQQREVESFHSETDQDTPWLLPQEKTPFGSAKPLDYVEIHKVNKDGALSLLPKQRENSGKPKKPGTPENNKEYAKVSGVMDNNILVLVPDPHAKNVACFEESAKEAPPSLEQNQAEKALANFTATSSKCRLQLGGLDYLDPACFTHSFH

[8] = molecular target: cyno PRLR on Baf3-cyPRLR cells (cyno); test: cell-based or functional assay
[9] = molecular target: T7, human PRLR on cells; test: cell-based or functional assay
[10] = molecular target: T8, mouse PRLR on Baf3-mPRLR cells (mouse, UniProt Q08501 20-608); test: FACS Baf3-mPRLR 10 ug/mL
T8 construct: whole, on cells
T8 sequence (looked up): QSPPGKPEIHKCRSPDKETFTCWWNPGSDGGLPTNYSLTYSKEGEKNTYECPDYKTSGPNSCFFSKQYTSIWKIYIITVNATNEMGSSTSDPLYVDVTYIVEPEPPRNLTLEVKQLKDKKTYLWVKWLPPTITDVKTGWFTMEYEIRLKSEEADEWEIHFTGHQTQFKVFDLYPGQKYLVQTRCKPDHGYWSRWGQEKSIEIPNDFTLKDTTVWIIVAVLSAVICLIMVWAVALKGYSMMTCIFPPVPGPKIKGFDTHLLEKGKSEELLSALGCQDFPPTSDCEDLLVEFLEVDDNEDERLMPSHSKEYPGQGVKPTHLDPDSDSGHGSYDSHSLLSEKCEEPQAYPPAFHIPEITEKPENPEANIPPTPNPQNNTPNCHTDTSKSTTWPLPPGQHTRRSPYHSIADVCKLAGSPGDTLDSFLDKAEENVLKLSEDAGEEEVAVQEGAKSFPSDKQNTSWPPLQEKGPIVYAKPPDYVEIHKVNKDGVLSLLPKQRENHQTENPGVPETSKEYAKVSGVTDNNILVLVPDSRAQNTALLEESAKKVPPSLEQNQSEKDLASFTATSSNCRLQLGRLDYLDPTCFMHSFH
Procedure: (§3) Nb2-11 and Baf3-xPRLR cells were resuspended in FACS buffer (PBS+1% FBS) at 2 millions cells/mL. Cells were added to round bottom 96-well plate (100 uL/well) and treated with testing PRLR antibodies for 1 hr at 4 C. Cells were then washed with FACS buffer twice and incubated with 2nd antibody conjugated to ALEXA488 (Invitrogen) for 1 hr at 4 C. After two washes in FACS buffer, cells were resuspended in 1% formaldehyde in PBS. Cells were analyzed using LSRII flowcytometer.

[11] = molecular target: T9, rat PRLR on Nb2-11 rat lymphoma cells (rat, UniProt P05710 20-610); test: FACS Nb2-11 20 ug/mL
T9 construct: whole, on cells
T9 sequence (looked up): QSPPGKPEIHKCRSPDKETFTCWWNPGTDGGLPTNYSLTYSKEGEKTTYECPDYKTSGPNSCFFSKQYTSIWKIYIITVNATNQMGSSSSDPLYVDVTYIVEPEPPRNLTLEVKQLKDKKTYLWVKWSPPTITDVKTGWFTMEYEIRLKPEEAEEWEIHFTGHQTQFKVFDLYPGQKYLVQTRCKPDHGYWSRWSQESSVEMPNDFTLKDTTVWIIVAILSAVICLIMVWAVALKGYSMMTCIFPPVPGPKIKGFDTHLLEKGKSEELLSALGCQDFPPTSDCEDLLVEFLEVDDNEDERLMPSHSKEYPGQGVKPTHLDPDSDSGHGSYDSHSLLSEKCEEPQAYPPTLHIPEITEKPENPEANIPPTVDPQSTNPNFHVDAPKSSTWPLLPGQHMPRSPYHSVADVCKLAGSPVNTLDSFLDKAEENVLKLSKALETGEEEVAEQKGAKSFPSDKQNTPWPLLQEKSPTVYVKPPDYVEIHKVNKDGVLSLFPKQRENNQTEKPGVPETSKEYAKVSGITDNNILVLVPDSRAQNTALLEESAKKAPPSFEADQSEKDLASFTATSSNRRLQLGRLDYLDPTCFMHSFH
Procedure: as §3

[12] = molecular target: T8, mouse PRLR on Baf3-mPRLR cells; test: cell-based or functional assay
[13] = molecular target: T9, rat PRLR on Nb2-11 rat lymphoma cells; test: cell-based or functional assay
[14] = molecular target: T4, human PRLR (Biacore antigen); test: SPR Biacore; remark: listed apart in the source

B1: Ab8 (antibody, V domains shown)
VH: EVQLQQSGPELVKPGASVKISCKASGYTFTDYNIHWVKQSHGKSLEWIGYIYPNNDGTGYNQKFKSKATLTVDNSSSTAYMEVRSLTSEDSAVYYCARGDGNYVGDMDYWGQGTSVTVSS
VL: DIQMTQSPASLSASVGETVTITCRASENIYSYLAWYQQKQGKPPQLLVYNAKTLAEGVPSRFSGGGSGTQFSLKINSLQPEDFGSYYCQHHYATPFTFGSGTKLEIK
notes: murine monoclonal, isotype G2b; also called murine Ab8
EC50 [1]: 98 pM
EC50 [2]: 342 pM
EC50 [3]: 205 pM
Kd [4]: 153 pM
koff [4]: 8.19e-05 s⁻¹
kon [4]: 536000 M⁻¹ s⁻¹
Kd [5]: 2200 pM
koff [5]: 0.00116 s⁻¹
kon [5]: 526000 M⁻¹ s⁻¹
Kd [6]: 259000 pM
koff [6]: 0.0466 s⁻¹
kon [6]: 180000 M⁻¹ s⁻¹
FACS GeoMean-neg [7]: 1530
Baf3-cyPRLR proliferation IC50 [8]: 1.64 µg/mL
Baf3-hPRLR proliferation IC50 [9]: 1.15 µg/mL
T47D pPRLR ELISA IC50 [9]: 0.219 µg/mL

B2: Ab9 (antibody, V domains shown)
VH: EVQLQQSGPELVRPGASVKISCKASGYSFTDYNMHWVKQSHGKSLEWIGYIYPYNGGAGYNQKFKSKATMNVGISSSTAYMELRSLTSEDSAVYYCARGDGNYVGDMDYWGQGTSVTVSS
VL: DIQMTQSPASLSASVGETVTITCRASENIYSYLAWYQQKQGKSPQLLVYNAKTLAEGVPSRFSGSGSGTQFSLKINSLQPEDFGSYYCQHHSGTPFTFGSGTKLEIK
notes: murine monoclonal, isotype G2b; also called murine Ab9
FACS GeoMean-neg [10]: 1
FACS GeoMean-neg [11]: 0
EC50 [1]: 72 pM
Kd [4]: 226 pM
koff [4]: 0.000131 s⁻¹
kon [4]: 577000 M⁻¹ s⁻¹
FACS GeoMean-neg [7]: 1870
Baf3-mPRLR proliferation IC50 [12]: > 30 µg/mL
Baf3-cyPRLR proliferation IC50 [8]: 6.4 µg/mL
Nb2-11 proliferation IC50 [13]: > 30 µg/mL
Baf3-hPRLR proliferation IC50 [9]: 0.51 µg/mL
T47D pPRLR ELISA IC50 [9]: 0.072 µg/mL

B3: Ab54 (antibody, human IgG1, kappa, V domains shown)
VH: EVQLVQSGAEVKKPGSSVKVSCKASGYTFTSYWIHWVRQAPGQGLEWIGEIDPSDSYTNYNQKFKGRATLTVDKSSSTAYMELSSLRSEDTAVYYCGRSFFTNWFAYWGQGTLVTVSS
VL: DVVMTQTPLSLSVTPGQPASISCRSSQSLVHSNGNTYLHWYLQKPGQSPQLLIYKVSNRFSGVPDRFSGSGSGTDFTLKISRVEAEDVGVYFCSQSTHVPFTFGGGTKVEIKR
notes: humanized from Ab7 (back mutations on Ab39); G1; also called Ab4 HC.1a.3 and Ab4 LC.1a
Kd [4]: 1000 pM
koff [4]: 0.00014 s⁻¹
kon [4]: 140000 M⁻¹ s⁻¹
Kd [5]: 850 pM
koff [5]: 0.00012 s⁻¹
kon [5]: 140000 M⁻¹ s⁻¹
Kd [6]: 170000 pM
koff [6]: 0.007 s⁻¹
kon [6]: 41000 M⁻¹ s⁻¹
fold weaker affinity than chAb7 [14]: ~5 fold
Baf3-hPRLR proliferation IC50 [9]: 0.77 µg/mL
